Laboratory results published in patent publication US20260132182A1 (published 2026).
Starred links: 1 amine or outer side, 2 acyl side, 3 side chain; linkers in the order of their positions; H or OH if unused. Non-standard residues stand in square brackets, D forms with d. Groups on a side chain read outwards from the residue. *: point of attachment. C20 diacid = O=C(O)CCCCCCCCCCCCCCCCCCC(=O)*; C18 diacid = O=C(O)CCCCCCCCCCCCCCCCC(=O)*; C16 diacid = O=C(O)CCCCCCCCCCCCCCC(=O)*; γGlu = O=C(O)[C@H](CCC(=O)[*:2])N[*:1]; εLys = N[C@@H](CCCCN[*:1])C(=O)[*:2]; Trx = NC[C@H]1CC[C@H](C(=O)O)CC1; AEEA = NCCOCCOCC(=O)O; Aib = CC(C)(N)C(=O)O; Ahx = NCCCCCC(=O)O

T1: human amylin-3 (a) receptor (human, UniProt P30988 25-474; O60896 24-148)
T1 sequence (looked up) 1: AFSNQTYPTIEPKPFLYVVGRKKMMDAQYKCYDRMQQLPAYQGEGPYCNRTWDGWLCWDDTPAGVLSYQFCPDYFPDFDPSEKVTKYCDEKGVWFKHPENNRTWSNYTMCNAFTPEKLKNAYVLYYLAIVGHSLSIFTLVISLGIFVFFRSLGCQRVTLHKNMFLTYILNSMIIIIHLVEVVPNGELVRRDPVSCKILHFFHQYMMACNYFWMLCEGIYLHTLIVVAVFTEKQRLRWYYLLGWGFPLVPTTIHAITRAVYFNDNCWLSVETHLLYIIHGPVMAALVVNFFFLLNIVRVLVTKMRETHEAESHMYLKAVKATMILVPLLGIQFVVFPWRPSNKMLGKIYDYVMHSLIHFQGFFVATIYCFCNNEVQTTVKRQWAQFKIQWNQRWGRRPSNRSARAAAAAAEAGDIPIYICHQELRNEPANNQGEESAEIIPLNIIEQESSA
T1 sequence (looked up) 2: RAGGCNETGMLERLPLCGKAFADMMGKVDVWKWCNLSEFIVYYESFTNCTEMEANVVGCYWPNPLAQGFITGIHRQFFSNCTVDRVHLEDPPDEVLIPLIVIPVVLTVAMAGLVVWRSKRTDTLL

B1: Compound 0506 (peptide)
peptide: H[Aib]EGTFTSDVSSYLEEQAAREFIAWLVRGRKGGGGEASELSTAALGRLSAELHELATLPRTETGSGSP-NH2
modifications: not fully specified (residue 31)
B2: Compound 0509 (peptide)
peptide: H[Aib]EGTFTSDVSSYLEEQAARK([AEEA-AEEA-γGlu-C16 diacid])FIAWLVRGRGGGGGEASELSTAALGRLSAELHK([AEEA-AEEA-γGlu-C16 diacid])LATLPRTETGSGSP-NH2
B3: Compound 0511 (peptide)
peptide: H[Aib]EGTFTSDVSRYLEEQAAREFIEWLVRGRK([AEEA-AEEA-γGlu-Trx-C20 diacid])GGGGEASELSTAALGRLSAELHELATLPRTETGSGSP-NH2
B4: Compound 0512 (peptide)
peptide: H[Aib]EGTFTSDVSSYLEEQAAREFIAWLVRGRK([AEEA-AEEA-γGlu-Trx-C20 diacid])GGEASELSTAALGRLSAELHELATLPRTETGSGSP-NH2
B5: Compound 0516 (peptide)
peptide: H[Aib]EGTFTSDVSK([AEEA-AEEA-γGlu-C16 diacid])YLEEQAARKFIAWLVRGRGGGGGEASELSTAALGRLSAELHELATLPRTETGSGSP-NH2
modifications: not fully specified (residue 21)
B6: Compound 0518 (peptide)
peptide: H[Aib]EGTFTSDVSK([AEEA-AEEA-γGlu-Trx-C20 diacid])YLEEQAAREFIAWLVRGRGGGGGEASELSTAALGRLSAELHELATLPRTETGSGSP-NH2
B7: Compound 0528 (peptide)
peptide: H[Aib]EGTFTSDVSK([AEEA-AEEA-γGlu-C16 diacid])YLEEQAAREFIAWLVRGRK([AEEA-AEEA-γGlu-C16 diacid])GGGGEASELSTAALGRLSAELHELATLPRTETGSGSP-NH2
B8: Compound 0056 (peptide)
peptide: H[Aib]EGTFTSDVSSYLEGQAAK([AEEA-AEEA-γGlu-C18 diacid])EFIAWLVRGRGK([AEEA-AEEA-γGlu-C18 diacid])QEPGQEPEASELSTAALGRLSAELHELATLPRTETGSGSP-NH2
B9: Compound 0529 (peptide)
peptide: H[Aib]EGTFTSDVSSYLEGQAAREFIAWLVRGRGQEPK([AEEA-AEEA-γGlu-C20 diacid])GQAPEASELSTAALGRLSAELHELATLPRTETGSGSP-NH2
B10: Compound 0539 (peptide)
peptide: H[Aib]EGTFTSDVSSYLEGQAAREFIAWLVRGRGQEPK([AEEA-AEEA-γGlu-Trx-C20 diacid])GQAPEASELSTAALGRLSAELHELATLPRTETGSGSP-NH2
B11: Compound 0552 (peptide)
peptide: H[Aib]EGTFTSDVSSYLEEQAAREFIAWLVRGRK([εLys-AEEA-AEEA-γGlu-C20 diacid])GGGGEASELSTAALGRLSAELHELATLPRTETGSGSP-NH2
B12: Compound 0561 (peptide)
peptide: H[Aib]EGTFTSDVSSYLEEQAARK([AEEA-AEEA-γGlu-Trx-C20 diacid])FIAWLVRGRGGGGGEASELSTAALGRLSAELHELATLPRTETGSGSP-NH2
B13: Compound 0562 (peptide)
peptide: H[Aib]EGTFTSDVSSYLEEQAARK([AEEA-AEEA-γGlu-C20 diacid])FIAWLVRGRGGGGGEASELSTAALGRLSAELHELATLPRTETGSGSP-NH2
B14: Compound 0564 (peptide)
peptide: H[Aib]EGTFTSDVSK([AEEA-Lys])YLEEQAAREFIAWLVRGRGGGGGEASELSTAALGRLSAELHELATLPRTETGSGSP-NH2
modifications: also: Lys on Ado carries two C16 diacid-gGlu-Ado-Ado groups, on its alpha and epsilon amines
B15: Compound 0565 (peptide)
peptide: H[Aib]EGTFTSDVSK([AEEA-AEEA-γGlu-C20 diacid])YLEEQAAREFIAWLVRGRGGGGGEASELSTAALGRLSAELHELATLPRTETGSGSP-NH2
B16: Compound 0575 (peptide)
peptide: H[Aib]EGTFTSDVSK([AEEA-AEEA-γGlu-C16 diacid])YLEEQAARK([AEEA-AEEA-γGlu-C16 diacid])FIAWLVRGRQEGGGGGASELSTAALGRLSAELHELATLPRTETGSGSP-NH2
B17: Compound 0576 (peptide)
peptide: H[Aib]EGTFTSDVSK([AEEA-AEEA-γGlu-C16 diacid])YLEEQAARKFIEWLVRGRGEGGGGGASELSTAALGRLSAELHELATLPRTETGSGSP-NH2
modifications: not fully specified (residue 21)
B18: Compound 0577 (peptide)
peptide: H[Aib]EGTFTSDVSK([AEEA-AEEA-γGlu-C16 diacid])YLEEQAARKFIEWLVRGRGEASELSTAALGRLSAELHELATLPRTETGSGSP-NH2
modifications: not fully specified (residue 21)
B19: Compound 0057 (peptide)
peptide: H[Aib]EGTFTSDVSSYLEGQAAK([AEEA-AEEA-γGlu-C18 diacid])EFIAWLVRGRGGQEK([AEEA-AEEA-γGlu-C18 diacid])GQEPEASELSTAALGRLSAELHELATLPRTETGSGSP-NH2
B20: Compound 0578 (peptide)
peptide: H[Aib]EGTFTSDVSK([AEEA-AEEA-γGlu-C16 diacid])YLEEQAARKFIAWLVRGRQEASELSTAALGRLSAELHELATLPRTETGSGSP-NH2
modifications: not fully specified (residue 21)
B21: Compound 0580 (peptide)
peptide: H[Aib]EGTFTSDVSSYLEEQAARK([AEEA-AEEA-γGlu-C20 diacid])FIAWLVRGGASELSTAALGRLSAELHELATLPRTETGSGSP-NH2
B22: Compound 0581 (peptide)
peptide: H[Aib]EGTFTSDVSSYLEEQAARK([AEEA-AEEA-γGlu-C20 diacid])FIEWLVRGASELSTAALGRLSAELHELATLPRTETGSGSP-NH2
B23: Compound 0629 (peptide)
peptide: H[Aib]EGTFTSDVSK([AEEA-AEEA-γGlu-C16 diacid])YLEEQAARKFIEWLVRGAAEASELSTAALGRLSAELHELATLPRTETGSGSP-NH2
modifications: not fully specified (residue 21)
B24: Compound 0630 (peptide)
peptide: H[Aib]EGTFTSDVSK([Ahx-γGlu-γGlu-C16 diacid])YLEEQAARK([Ahx-γGlu-γGlu-C16 diacid])FIEWLVRGAAEASELSTAALGRLSAELHELATLPRTETGSGSP-NH2
B25: Compound 0009 (peptide)
peptide: H[Aib]EGTFTSDVSSYLEGQAAREFIAWLVRGK([AEEA-AEEA-γGlu-C18 diacid])GEGEGEEASELSTAALGRLSAELHELATLPRTETGSGSP-NH2
B26: Compound 0632 (peptide)
peptide: H[Aib]EGTFTSDVSK([γGlu-γGlu-γGlu-γGlu-C20 diacid])YLEEQAAREFIEWLVRGAAEASELSTAALGRLSAELHELATLPRTETGSGSP-NH2
B27: Compound 0633 (peptide)
peptide: H[Aib]EGTFTSDVSSYLEEQAARK([γGlu-γGlu-γGlu-γGlu-C20 diacid])FIAWLVRGRGGGGGEASELSTAALGRLSAELHELATLPRTETGSGSP-NH2

Target: T1, human amylin-3 (a) receptor
Assay: cell-based or functional assay

Binder	Human AmyR3 potency [EC50 (pM)] [pM]
B1	9.8
B2	29.9
B3	8.4
B4	10.8
B5	8.9
B6	4.4
B7	22
B8	120
B9	14.1
B10	12.1
B11	6.9
B12	10.7
B13	4.1
B14	14.5
B15	6.2
B16	8.3
B17	10.1
B18	19.1
B19	165
B20	26.9
B21	9.3
B22	26.4
B23	97.5
B24	110
B25	49.5
B26	148
B27	5.3

Target: human GLP-1 receptor (human, UniProt P43220 24-463)
Assay: cell-based or functional assay

Binder	Human GLP-1R potency [EC50 (pM)] [pM]
B1	5.8
B2	7.1
B3	8.8
B4	7.6
B5	3.3
B6	3.4
B7	3.8
B8	41.4
B9	6.4
B10	5
B11	4.7
B12	17.5
B13	19.3
B14	24.5
B15	6.4
B16	5.6
B17	2.9
B18	5.6
B19	59
B20	2.5
B21	7.4
B22	17
B23	7.9
B24	7.1
B25	7.9
B26	18.8
B27	28.2
